Experimental data published in the nanobody polyreactivity screen of Harvey et al. (2022).

Assay: yeast display, Sf9 membrane polyspecificity reagent, FACS + sequencing; frameworks hold sequencing errors
Outline: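 After 36–48 hours of galactose induction, yeast (Saccharomyces cerevisiae BJ5465) displaying a synthetic nanobody library were stained at 4 °C for 1 hour with 10% biotinylated, detergent-solubilized Sf9 membrane reagent. Streptavidin microbeads enriched the stained cells before FACS sorting into low and high (top ~1%) gates on anti-HA and streptavidin fluorescence. Each clone's polyreactivity label reflects its gate of origin.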

Sequence | polyreactivity (PSR sort gate)
QVQLVESGGGLVQAGGSLRLSCAASGSTFSTYAMGWYRQAPGKERELVAAITAGGGSTYYADSVKGRFTISRDNAKNTVYLQMNSLKPEDTAVYYCAARSYYRFGGGYWGQGTQVTVSS | high polyreactivity
QVQLVESGGGLVQAGGSLRLSCAASGRIFVGNAMGWYRQAPGKEWALVAANSGSGDSTYYADSVKGRFTISRDNAKNTVYLQMISLKPEDTAVYYCNVDYDFVIYYYWYYPGYDYWGQGTQVTVSS | low polyreactivity
QVQLVESGGGLVQAGGSLRLSCAASGSTFGDYAMGWYRQAPGKERELVAAISFSDGSTYYADSVKGRFTISRDNAKNTVYLQMNSLKPEDTAVYYCAKVDYWVYRWYTYDYWGQGTQVTVSS | low polyreactivity
QVQLVESGGGLVQAGGSLRLSCAASGSIFDVYTMGWYRQAPGKERELVAAISQSTGSTYYAASVKGRFTISRDNAKNTVYLQMNSLIPEDTAVYYCNAKFRFVTYKTPYVFWGQVTQVTVSS | low polyreactivity
QVQLVESGGGLVQAGGSLRLSCAASGFIFEYNAMGWYRQAPGKERELVAAITSSGGSTYYADSVKGRFTISRDNAKNTVYLQMNSLKPEDTAVYYCARVRRSAYYKDYYYWGQGTQVTVSS | high polyreactivity
QVQLVESGGGLVQAGGSLRLSCAASGFILPHYTMGWYRQAPGKERELVAAITSGVSTYYADSVKGRFTISRDNAKNTVYLQMNSLKPEDTAVYYCNALATYIGYKYDYWGQGTQVTVSS | low polyreactivity
QVQLVESGGGLVQAGGSLRLSCAASGIIFSSYAMGWYRQAPGKERELVADISYTGGSTYYADSVKGRFTISRDNAKNTVYLQMNSLKPEDTAVYYSAAGVYLHYSVDYWGQGTQVTVSS | low polyreactivity
QVQLVESGGGLVQAGCSLRLSCASSGRTFSEYAMGWYRQAPGKERELVAAISKGGGSTYYADSVKGRCTISRDNAKNTVYLQMNSLKPEDNAVYYCAKSSHAREYYYWGQGTQVTVSS | low polyreactivity
QVQLVESGGGLVQAGGSLRLSCAASGFTFYHYAMGWYRPAPGKERELVAAITWSGGDTYYADSEKGRFTSSRDNAKNTVYLQMNSLKPEDTAVYYCNADDPPGAPYYDSFDYRGDYWGQGTQRTVSS | low polyreactivity
QVQLVESGGGLVQAGGSLRFSCAASGGFFHGNTMGWYRQAPGKERELVAAISNSGGSTYYADSVKGRFPISRDNAKNTVYLQMNSLKPEDTAVDSCARVGYKLYQYKYDYWGQGTQVTVSS | low polyreactivity
QVQLIESGGGLVQAGGSLRLSCAASGSTFYGNAMGWYRQAPGKEREFVAAITGSGDSTDYADSVKGRFTISRDNAKNTVYLQMNSLIPEDTAVYYCNAVGYTPSKPSKFDYWGQGTQVTVSS | low polyreactivity
QVQLVESGGGLVQAGGSIRISCAPSGRTFNYYAIGWNRPAPAQEREFVAAITKSCGSTYYADSVKGRFTISRDNAKYTVYLQMNSVKPEDTAVYYCATTHRYRVVYWRQGTQVTVSS | high polyreactivity
QVQLVESGGGLVQAGGSLRLSCAASGLTLVTIGMGWYSQAPAKERELVAAIDSTGGRTYYADSVKGRFTISRDNAKKTVYLQMTSLKPEDTAVSYCNRRWYARAAYWGQGTQVTVSS | high polyreactivity
QVQLVESGGGLVQAGGSLRLSCAASGINFQNYAMGLYRQAPGKEREFVASISFSGASTYYADSVKGRFTISRDKAKNTVYLQMNSLKPDDTAVYYCAARYLYGPKYYYWGQGTQVTVSS | high polyreactivity
QVQLGESGGGLVQAGGSLRLSCAASGRNFENNAMGWYRQAPGKERELVASIRGGGSTNYADSVKGRFTISRDNAKNTVYVQMNSLKPEDTAVYYCNADYWWSYVRFDYWGQGTQVTVSS | low polyreactivity
QVQLVESGGGLVQAGGSRRLSCAASGNIFPQNGMGWYRQAPAKERELVAAITRGGSTYYADSVKGRFTISRDNAKNTVYVQMHSLKPEDTAVYDCAAVRPQYRRRTKANPYNYWGQGTQVTVSS | high polyreactivity
QVQLQESDGGLVQAGGSLRLSCAASGSISPQYYRGWYRQAPGKEREFVAISKGTSTYYADSVKGRLTISRVNAKNTVYLQMNSLKPEDTAVYCCAAGRWLQKVHAYWDQGTQVTVSS | low polyreactivity
QVQLVESGGGLVQEGGSLRLSCAASGFTFAYYAMGWYRQAPGKERELVASISYNGGITNYADSVKGRFTISRYNAKNTVYLQMNSLKPEDTAVYYCAAGVFFFTFDYWGQGTQVTVSS | low polyreactivity
QVQLVESGGGLVQAGGSLRLSCAASGIIFDVYAMGWYRPAPGKERELVAAISYGGGTTYYADSVKGRFTISRDNAKNTVYLQMNSLKPEDTAVYYCAADSYRSIGDDYWGQGTQVTVSS | high polyreactivity
QVHLVESGGVLVQAGGRHRISCAASGRTFIQNAMGWYRQAPGKERELVAAISWSGGSTYYADSVKGRFTISRDNAKNTVYLQMNSLKPADTAVSYCAAETYDYLFHTYEYWGQATQVTVSS | low polyreactivity
QVQLVESGGGLVQAGGSLRLSCAASGFTLYYYTMGWYRQAPGKERELVAAITSGGDTYYADSVKGRFTISRDNAKNTVYLQMNSLKPEDTAVYYCDAKKKYHYVASYKRFEYWGQGTQVTVSS | low polyreactivity
QFQLVESGGGLVQAGGSLRLSCAASGSIFQSYAMVWYRQAPGKERELVAAITRSGGRTYYADSVKGRFTISRDNAKNTVYLQMNSLKPEDTAVYFCAAFGWGYGYWGQGTQVTVSS | high polyreactivity

Sequence | polyreactivity (PSR sort gate)
QVQLVESGGGLVQAGGSLRLSCAASGSIFNSYAMGWYRQAPGKERELVAAISSGGGRTYYAVSVKGRFKISRDNAKNTVYLQMNSLKPEDTAVYYCAKYYRAFIRDYNYWGQGTQVTVSS | high polyreactivity
QVQLVESGGGLVQAGGSLRLSCAASGFIFPVYAMGWYRQAPGKERELVAAITDSGDSTYYADSVKGRFTISRDNAKNTVYLQMNSLKPEDTAVYYCAAQVQYPRWYRSGKYDYWGQGTQVTVSS | low polyreactivity
QVQLVESGGGLVQAGGSLRLSCAASGSIFRYYTMGWYRQAPGKERELVAGINRGGRTYYADSVKGRYTISRDNAKNTVYLQMNSLKPEDTAVYYCAAVTYYGFDYWGQGTQVTVSS | high polyreactivity
QDQLVESGGALVQAGGSLRLSCAPSGGTFWIYAMGWYRQAPGKERELVAGITTSGATTYYADSVKGRFTISRDNAKNTVYLQMNSLKPVDTAVYYCAADEYYRYEYWGHGTQVTVSS | low polyreactivity
QVQLVESGGGLVQAGGSLRLSCAASGFTFADYAMGWYRQAPGKERELVAAINRSGGRTYYADSVKGRFTISRDNAKNTVYLQMNSLKPEDTAVYYCAAYGITYHNYDYWGQGTQVTVSS | high polyreactivity
QVQLVESGGGLVQAGGSLRLSCAASGRIFVRNAMGWYRQAPGKERELVAGISNAGRTNYADSVKGRFTISRDNAKNTVYLQMNSLKPEDTAVYYCAKRPGYDYDYWGQGTQVTVSS | high polyreactivity
QVQLVESGGGLVQAGGSLRLSCAASGLTFGAYAMGWYRQAPRKEREFVAAITYSGGSSNYADSVKGRFTISRDNAKNTVYLQMNSLKPEDTAVYYCNAGYYSPWAFYPYDYWGQGTQVTVSS | high polyreactivity
QVQLVESGGGLVQAGGSLRLSCAASGRTFSWYAMGWYRQAPGKERELVAAITWSGGSTYYADSVKGRFTISRDNAKNTVYLQMNSLKPEDTAVYYCNALRYSNRRYYSTGPHDYWGQGTQVTVSS | high polyreactivity
QVQLVESGGGLVQAGGSLRLCCAASGLIFRRYTMGWYRQAPGKERELVAAISWRVGRTYYADSVKGRFTISRDNAKNTVYLEMNSLKPEDTAVYYCAAILYQYDTPQVSSSRLDYWGQGTQVTVSS | high polyreactivity
QVQLVESGGGLVQAGGSLRLSCAASGRTFGDYAMGWYRQAPGKERELVAAISGTGGSTYYADSVKGRFTISRDNAKNTVYLQMNSLKPEDTAVYYCAARLKYIRFYYWGQGTQVTVSS | high polyreactivity
QVQLVESGGGLVQAGGSLRLSCAASGFIFAWYAMGWYRQAPGKEREMVAAITSGGRTYYADSVKGRFTISRDNAKNTVYLQMNSLKPEDTAVYYCATDAVASHRPYKYGPQSGSWGQGTQVTVSS | high polyreactivity
QVQLVESGGGLVQAGGSLRLSCAASGRTFYNNAMGWYRQAPGKERELVAAISWSGGSTFYADSVKGRFTISRDNAKKTVYLQMNSLKPEDTAVYYCAALGRPYGSDYWGQGTQVTVSS | high polyreactivity
QVQLVESGGGLVQAGGSLRLSCAASGFTFRSYAMGWYRQAPGKERELVAAISSTGRTYYADSVKGRFTISRDNAKNTVYLQMNSLKPEDTAVYYCARNIPVSYYRYGYWGQGTQVTVSS | high polyreactivity
QVQLVESGGGLVQAGGSLRLSCAASGSTFPFYAMGWYRQAPGKERELVATISSDGSTNYADSVKGRFTISRDNAKNTVYLQMNSLKPEDTAVYYCNALARWWAYYDYGYWGQGTQVTVSS | low polyreactivity
QVQLVESGGVLVQAGGSLRLSCAASGFIFYSYDMGWYRQAPGKERELDAAIRSDGSTYYADTVKGRFTISRDNAKNTVYLQMYSLKPEDTAVYDCAAKYGVRYWHYYSWTNDYWGQGTQVTVSS | low polyreactivity
QVQLVESGGGLVQAGGSLRLSCAASGITLGAYAMGWYRQAPGKERELVAAISRSGGSTYYADSVKGRFTISRDNAKNTVYLQMNSLKPEDTAVYYCNAPRFVSYDYWGQGTQVTVSS | high polyreactivity
QVQLVESGGGLVQAGGSLRLSCAASGLTFYVYAMGWYRQAPGKERELVAAISSGGRTYYADSVKGRFTISRDNAKNTVYLQMNSLKPEDTAVYFCAAVRHRNYGYWGQGTQVTVSS | high polyreactivity
QVQLVESGGGLVQAGGSLRLSCAASGSTFLANAMGWYRQAPGKEWELVATISSGGSTNYADSVKGRFTISRDNAKNTVYLQMNSLKPEDTAVYYCAAEYWYAWQEYGYWGQGTQVTVSS | low polyreactivity
QVQLVESGGGLVQAGGSLRLSCAASGFTFYPYAMGWYRQAPGKERELVAGITRGGSTNYADSVKGRFTISRDNAKNTVYLQMNSLKPEDTAVYYCAAKYGPYFRRLDYWGQGTQVTVSS | high polyreactivity
HVQQQESGGGLVQAGGSLRLSCAASGYISVFIGMGWYRQSPGKERELVASIAYGAITYYTDSVKGRFTMSRDYAKNTEYLQMNSLKPEDTAVYYCATRRYYRYYNFWYYYWGQGTQVTVSS | high polyreactivity
QVQLVESGGGLVQAGGSLRLSCAASGFIFTVNAMGWYRQAPGKERELVAAITQSGGNTSYADSVKGRFTISRDNAKNTVYLQMNSLTPEDTAVYYCNASSDTSRYGVSTYYYWGQGTQVTVSS | low polyreactivity
